{
  "source": "patent US20190389957A1",
  "about": "(SINGAPORE HEALTH SERVICES PTE, published 2019)",
  "binders": {"B1": {"name": "Anti-IL-11Rα antibody clone BSO-9A7 (antibody, V domains shown)", "VH": "QVQLQQPGAELVRPGSSVKLSCKASGYTFTNYWMHWLKQRPVQGLEWIGNIGPSDSKTHYNQKFKDKATLTVDKSSSTAYMQLNSLTSEDSAVYYCARGDYVLFTYWGQGTLVTVSA", "VL": "DIVLTQSPATLSMTPGDSVSLSCRASQSISNNLHWYQQKSHESPRLLIKYASQSISGIPSRFSGSGSGTDFTLSFNSVETEDFGVYFCQQSYSWPLTFGAGTKLELK", "notes": "also called RA7; 9A7 VH/VL"}},
  "key": {"[1]": {"target": "T1, Human IL-11Rα endogenously expressed on primary human cells (human, UniProt Q14626 23-422)", "T1 sequence (looked up)": "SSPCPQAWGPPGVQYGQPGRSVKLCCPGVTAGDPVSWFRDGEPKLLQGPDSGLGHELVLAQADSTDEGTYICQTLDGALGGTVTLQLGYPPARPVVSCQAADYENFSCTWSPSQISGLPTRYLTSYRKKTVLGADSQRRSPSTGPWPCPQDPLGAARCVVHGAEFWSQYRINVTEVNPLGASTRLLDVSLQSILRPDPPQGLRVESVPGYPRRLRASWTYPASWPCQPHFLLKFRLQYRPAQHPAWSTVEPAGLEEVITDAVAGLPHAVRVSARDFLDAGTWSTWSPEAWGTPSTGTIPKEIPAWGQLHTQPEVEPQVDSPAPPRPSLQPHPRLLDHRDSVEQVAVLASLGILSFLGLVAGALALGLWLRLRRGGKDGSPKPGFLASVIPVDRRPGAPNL", "experiment": "cell-based or functional assay"}, "[2]": {"target": "T2, IL-11:IL-11Rα fusion protein (hyper IL-11)", "T2 chain": "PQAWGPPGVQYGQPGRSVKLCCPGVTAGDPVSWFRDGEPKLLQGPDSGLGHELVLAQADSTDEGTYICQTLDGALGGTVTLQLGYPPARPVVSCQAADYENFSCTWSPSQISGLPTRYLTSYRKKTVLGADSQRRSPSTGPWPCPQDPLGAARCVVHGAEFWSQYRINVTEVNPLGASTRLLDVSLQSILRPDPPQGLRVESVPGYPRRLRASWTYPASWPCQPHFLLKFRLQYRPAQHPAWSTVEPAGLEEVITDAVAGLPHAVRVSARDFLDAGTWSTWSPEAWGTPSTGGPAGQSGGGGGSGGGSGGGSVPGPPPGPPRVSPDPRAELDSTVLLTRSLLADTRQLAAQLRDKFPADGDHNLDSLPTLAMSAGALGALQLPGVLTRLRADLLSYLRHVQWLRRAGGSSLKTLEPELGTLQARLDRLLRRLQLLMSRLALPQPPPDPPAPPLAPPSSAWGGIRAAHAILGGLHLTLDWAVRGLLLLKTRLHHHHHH", "experiment": "cell-based or functional assay"}, "[3]": {"target": "T1, Human IL-11Rα endogenously expressed on …", "experiment": "cell-based or functional assay", "remark": "listed apart in the source"}, "[4]": {"target": "T1, Human IL-11Rα endogenously expressed on …", "experiment": "cell-based or functional assay", "remark": "listed apart in the source"}, "[5]": {"target": "Tagged human IL-11Rα expressed at the surface of transiently transfected cells (human) (UniProt Q14626)", "experiment": "same assay; by the legend the percent is the strength of binding relative to the anti-FLAG positive control (100%); negative control 3%"}, "[6]": {"target": "T3, Recombinant human IL-11Rα (Sino Biological Cat. No. 10252-H08H) (human, UniProt Q14626 23-363)", "T3 construct": "Bought protein, immobilised on the chip", "T3 sequence (looked up)": "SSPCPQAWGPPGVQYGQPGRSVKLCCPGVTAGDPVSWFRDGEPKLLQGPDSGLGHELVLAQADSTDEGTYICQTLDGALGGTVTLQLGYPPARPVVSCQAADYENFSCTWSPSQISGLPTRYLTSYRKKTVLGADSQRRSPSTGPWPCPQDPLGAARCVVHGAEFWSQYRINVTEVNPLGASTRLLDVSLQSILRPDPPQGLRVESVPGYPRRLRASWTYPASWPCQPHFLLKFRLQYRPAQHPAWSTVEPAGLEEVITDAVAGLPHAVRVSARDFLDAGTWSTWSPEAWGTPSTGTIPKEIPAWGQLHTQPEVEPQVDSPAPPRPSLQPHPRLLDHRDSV", "experiment": "SPR, BIAcore T200, multi-cycle kinetics; recombinant human IL-11Rα immobilised, antibody (IgG1 format) flowed at 50 to 1.56 nM; 1:1 model; analysis (2); Chi2 0.0356 RU2"}, "[7]": {"target": "T3, Recombinant human IL-11Rα (Sino …)", "experiment": "SPR, BIAcore T200, multi-cycle kinetics; recombinant human IL-11Rα immobilised, antibody (IgG1 format) flowed at 100 to 1.56 nM; 1:1 model; analysis (1); Chi2 0.181 RU2"}, "[8]": {"target": "T1, Human IL-11Rα endogenously expressed on …", "experiment": "cell-based or functional assay", "remark": "listed apart in the source"}, "[9]": {"target": "T4, IL-11Rα as used in the Biacore kinetics of Example 14 (UniProt Q14626 23-363, limits assumed)", "T4 sequence (looked up)": "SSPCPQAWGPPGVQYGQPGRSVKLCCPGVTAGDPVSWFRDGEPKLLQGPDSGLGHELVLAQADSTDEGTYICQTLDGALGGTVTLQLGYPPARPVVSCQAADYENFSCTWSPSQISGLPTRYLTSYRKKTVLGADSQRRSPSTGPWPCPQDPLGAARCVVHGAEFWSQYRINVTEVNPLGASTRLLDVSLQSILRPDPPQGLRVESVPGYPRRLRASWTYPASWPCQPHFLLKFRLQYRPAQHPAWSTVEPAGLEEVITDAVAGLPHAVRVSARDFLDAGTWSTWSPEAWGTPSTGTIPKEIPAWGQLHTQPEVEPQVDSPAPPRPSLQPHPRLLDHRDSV", "experiment": "SPR (Biacore T200), multi-cycle kinetics, 25 C, HBS-P+ pH 7.4 with 0.1% BSA", "method": "The six antibodies were assessed by multi-cycle kinetics analysis at a final concentration of 1 μg/ml, run at 25° C. with HBS-P+ running buffer (pH 7.4) containing 0.1% BSA using a Biacore T200 instrument.\nThe relative KD was calculated by dividing the KD of the humanised variant by that of the 9A7 antibody assayed in the same experiment. All six humanised antibodies bound to IL-11R within two-fold of 9A7 (SEQ ID NO:7 and 13)."}, "[10]": {"target": "T5, Mouse IL-11Rα endogenously expressed on primary mouse fibroblasts (mouse, UniProt Q64385 24-432)", "T5 sequence (looked up)": "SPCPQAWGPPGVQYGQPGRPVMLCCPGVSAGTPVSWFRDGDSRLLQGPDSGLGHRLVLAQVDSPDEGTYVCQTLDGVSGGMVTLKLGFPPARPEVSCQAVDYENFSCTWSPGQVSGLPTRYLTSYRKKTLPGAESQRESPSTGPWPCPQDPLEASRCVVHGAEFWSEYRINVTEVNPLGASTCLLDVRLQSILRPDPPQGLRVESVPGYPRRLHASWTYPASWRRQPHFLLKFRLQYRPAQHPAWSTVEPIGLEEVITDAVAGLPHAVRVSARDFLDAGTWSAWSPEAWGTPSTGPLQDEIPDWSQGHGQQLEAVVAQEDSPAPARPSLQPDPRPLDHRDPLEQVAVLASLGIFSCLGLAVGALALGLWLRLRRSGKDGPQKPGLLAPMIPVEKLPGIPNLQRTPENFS", "experiment": "cell-based or functional assay"}, "[11]": {"target": "T2, IL-11:IL-11Rα fusion protein (hyper …)", "experiment": "cell-based or functional assay"}, "[12]": {"target": "T1, Human IL-11Rα endogenously expressed on …", "experiment": "cell-based or functional assay", "remark": "listed apart in the source"}, "[13]": {"target": "Tagged human IL-11Rα expressed at the surface of transiently transfected cells (human) (UniProt Q14626)", "experiment": "flow cytometry of subcloned hybridoma supernatant on cells transiently transfected with FLAG-tagged human IL-11Rα (sheet head: 'cells transfected with pB1-IL11-hum.FL', 'flow cytometry (Attunes)'); fluorescent anti-mouse IgG secondary; negative control GMFI 930"}},
  "data": [
    {"binder": "B1", "values": [
      {"measurement": "IC50 of inhibition of MMP2 secretion, human atrial fibroblasts + TGFB1 5 ng/ml, 24 h (panel 'MMP2 - TGFB - 9A7')", "setting": "[1]", "value": 0.082, "unit": "µg/mL"},
      {"measurement": "IC50 of inhibition of TIMP1 secretion, human atrial fibroblasts + TGFB1 5 ng/ml, 24 h (panel 'TIMP1 - TGFB - 9A7')", "setting": "[1]", "value": 0.0974, "unit": "µg/mL"},
      {"measurement": "IC50 of inhibition of MMP2 secretion, human atrial fibroblasts + IL-11:IL11RA (hyper IL-11) 0.2 ng/ml (panel 'MMP2 - IL-11:IL11RA - 9A7')", "setting": "[2]", "value": 0.246, "unit": "µg/mL"},
      {"measurement": "IC50 of inhibition of TIMP1 secretion, human atrial fibroblasts + IL-11:IL11RA (hyper IL-11) 0.2 ng/ml (panel 'TIMP1 - IL-11:IL11RA - 9A7')", "setting": "[2]", "value": 0.196, "unit": "µg/mL"},
      {"measurement": "IC50 of inhibition of MMP2 secretion, primary human atrial fibroblasts + TGFβ1 (panel '9A7')", "setting": "[3]", "value": 0.00588, "unit": "µg/mL"},
      {"measurement": "IC50 of inhibition of MMP2 secretion, primary human hepatic stellate cells + TGFB1 5 ng/ml (endogenous IL-11); upper panel", "setting": "[4]", "value": 0.00093, "unit": "µg/mL"},
      {"measurement": "IC50 of inhibition of MMP2 secretion, primary human hepatic stellate cells + exogenous IL-11 2 ng/ml; lower panel", "setting": "[4]", "value": 0.00164, "unit": "µg/mL"},
      {"measurement": "% positive", "setting": "[5]", "value": 111, "unit": "%"},
      {"measurement": "Kd", "setting": "[6]", "value": 5.46, "unit": "nM"},
      {"measurement": "koff", "setting": "[6]", "value": 0.000875, "unit": "s⁻¹"},
      {"measurement": "kon", "setting": "[6]", "value": 160000, "unit": "M⁻¹ s⁻¹"},
      {"measurement": "Kd", "setting": "[7]", "value": 7.85, "unit": "nM"},
      {"measurement": "koff", "setting": "[7]", "value": 0.000759, "unit": "s⁻¹"},
      {"measurement": "kon", "setting": "[7]", "value": 96600, "unit": "M⁻¹ s⁻¹"},
      {"measurement": "IC50 of inhibition of TIMP1 secretion, primary human lung fibroblasts + TGFB1 5 ng/ml (panel '9A7')", "setting": "[8]", "value": 0.00229, "unit": "µg/mL"},
      {"measurement": "Kd", "setting": "[9]", "value": 4.29, "unit": "nM"},
      {"measurement": "koff", "setting": "[9]", "value": 0.000926, "unit": "s⁻¹"},
      {"measurement": "kon", "setting": "[9]", "value": 216000, "unit": "M⁻¹ s⁻¹"},
      {"measurement": "relative KD (KD divided by KD of 9A7)", "setting": "[9]", "value": "1 ratio to 9A7"},
      {"measurement": "IC50 of inhibition of MMP2 secretion, primary mouse cardiac fibroblasts + TGFB1 5 ng/ml (endogenous IL-11) (panel 'TGFB1-driven MMP2 secretion')", "setting": "[10]", "value": 0.0146, "unit": "µg/mL"},
      {"measurement": "IC50 of inhibition of MMP2 secretion, primary mouse cardiac fibroblasts + exogenous IL-11 2 ng/ml (panel 'IL-11-driven MMP2 secretion')", "setting": "[10]", "value": 0.0292, "unit": "µg/mL"},
      {"measurement": "IC50 of inhibition of MMP2 secretion, primary mouse cardiac fibroblasts + IL-11:IL11RA (hyper IL-11) 0.2 ng/ml (panel 'IL-11:IL11RA-driven MMP2 secretion')", "setting": "[11]", "value": 0.0351, "unit": "µg/mL"},
      {"measurement": "IC50 of inhibition of MMP2 secretion by HSCs stimulated with TGFβ1 (5 ng/ml, 24 h)", "setting": "[12]", "value": 0.0054, "unit": "nM"},
      {"measurement": "GMFI", "setting": "[13]", "value": 34800}
    ]}
  ]
}
